# Assay results taken from US20130084301A1 (published 2013).
# Substitutions are numbered along the chain they refer to.
# B1: HC-84.22 (antibody, V domains shown)
# VH: EVQLVQSGAEVKKPGSSVKVSCKASGDTFSSYSIHWVRQAPGQGLEWMGRIIPIVGLVDYAQMFQGRVTISADRSTNTVYMDLSNLRSEDTAIYYCARSLGCPNGVCHGPRAADYFDYWGQGTLVTVSS
# VL: EMTLTQSPSSLSASVGDRVTITCRASQSISSWLAWYQQKPGKAPKLLIYDASNLETGVPSRFSGSGSGTDFTFTISSLQPEDIATYYCQQYDNLPRTFGQGTKVDIKR
# B2: HC-84.23 (antibody, V domains shown)
# VH: B1 VH with E1Q, Q6E, I93Y, Y95C, C96A, A97R, R98A
# VL: EIVLTQSPGTVSLFPGDRVTLSCRASQRVPSSSLAWYQQKPGQAPRLLLYGASSRATGIPDRFSGRGSGTDFALSISRLEPEDFAVYYCQQYGSSLITFGQGTRLEIKR
# notes: also called HC-23
# B3: HC-84.21 (antibody, V domains shown)
# VH: QVQLVQSGAEVKKPGSSVKVSCKASGTSFNRYTFAWVRQAPGQGLEWVGTIIPIVGLTNYAEKFQGRVSITADKSTSTTYMELSSLRSEDTAVYFCARKVEFWLGEIAPNKFDVFDLWGQGTMVTVSS
# VL: EIVLTQSPDSLAVSLGERATIHCKSSQSIFFSSNSKDYLAWYQQKPGQPPKLLIYWASTRDSGVPDRFSGSGSGTDFTLTITGLQADDAAVYYCQQFDTPQITFGGGTKLEIKR
# notes: also called CBH-84.21
# B4: HC-84.24 (antibody, V domains shown)
# VH: QVQLVQSGAEVKKPGSSVKVSCKASGGTFSLNSLSWVRQAPGQGLEWMGTIIPIVGIANYAQKFQGRVTITADKSTGTAYMDLSSLSDDTAVYFCARELYSGTGFFRLEALDYWGQGTLVTVSS
# VL: DIQMTQSPATLSLSPGERATLSCRASQSVSSYLAWYQQKPGQAPRLLIYDASNRATGIPARFIAGGSGTDFTLTISSLEPEDFAVYYCQQYGSPQTFGQGTKLEIKR
# B5: HC-84.20 (antibody, V domains shown)
# VH: QVQLVQSGSEVKKPGSSVKVSCKASGGTFNIYTVNWVRQAPGQGLEWMGRIIPMLGSADYAQRFQGRVTISADKSTSTAYMELRNLKSEDTAVYYCARSLPREMFFRDDAFDIWGQGTMVTVSS
# VL: ETTLTQSPGTLSLSPGERATLSCRASQSVSSNLAWYQQKPGQAPRLLIYGASTRATGIPDRFSGSGSGTDFTLTISRLEPDDFVVYYCQQYGSSPVTFGQGTRLEIKR
# Legend:
# [1] = molecular target: HCV 1a E2 with alanine substitution at 428 (hepatitis C virus genotype 1a, H77c, UniProt P27958 384-746); assay: alanine-substitution ELISA, antibody 2 ug/ml
# [2] = molecular target: HCV 1a E2 with alanine substitution at 437 (hepatitis C virus genotype 1a, H77c, UniProt P27958 384-746); assay: alanine-substitution ELISA, antibody 2 ug/ml
# [3] = molecular target: HCV 1a E2 with alanine substitution at 420 (hepatitis C virus genotype 1a, H77c, UniProt P27958 384-746); assay: alanine-substitution ELISA, antibody 2 ug/ml
# [4] = molecular target: T1, HCV 1a E2 with alanine substitution at 441 (hepatitis C virus genotype 1a, H77c, UniProt P27958 384-746); assay: alanine-substitution ELISA, antibody 2 ug/ml
# [5] = molecular target: T2, HCV 1a E2 with alanine substitution at 429 (hepatitis C virus genotype 1a, H77c, UniProt P27958 384-746); assay: alanine-substitution ELISA
# [6] = molecular target: HCV 1a E2 with alanine substitution at 616 (hepatitis C virus genotype 1a, H77c, UniProt P27958 384-746); assay: alanine-substitution ELISA
# [7] = molecular target: T3, HCV 1a E2 with alanine substitution at 442 (hepatitis C virus genotype 1a, H77c, UniProt P27958 384-746); assay: alanine-substitution ELISA
# [8] = molecular target: T4, HCV 1a E2 with alanine substitution at 443 (hepatitis C virus genotype 1a, H77c, UniProt P27958 384-746); assay: alanine-substitution ELISA
# [9] = molecular target: T2, HCV 1a E2 with alanine substitution at …; assay: alanine-substitution ELISA; row marked *: tested at 0.2 ug/ml
# [10] = molecular target: T3, HCV 1a E2 with alanine substitution at …; assay: as above
# [11] = molecular target: T4, HCV 1a E2 with alanine substitution at …; assay: as above
# [12] = molecular target: T1, HCV 1a E2 with alanine substitution at …; assay: as above
# [13] = molecular target: T2, HCV 1a E2 with alanine substitution at …; assay: alanine-substitution ELISA, antibody 2 ug/ml
# [14] = molecular target: T3, HCV 1a E2 with alanine substitution at …; assay: alanine-substitution ELISA, antibody 2 ug/ml
# [15] = molecular target: T4, HCV 1a E2 with alanine substitution at …; assay: alanine-substitution ELISA, antibody 2 ug/ml
# [16] = molecular target: HCV 1a E2 with alanine substitution at 613 (hepatitis C virus genotype 1a, H77c, UniProt P27958 384-746); assay: alanine-substitution ELISA, antibody 2 ug/ml
binder,measurement,setting,value
B1,% of binding to wt E2,[1],19%
same,% of binding to wt E2,[2],8%
same,% of binding to wt E2,[3],18%
same,% of binding to wt E2,[4],2%
same,binding result,[5],no binding (tested: 2 ug/ml)
same,binding result,[6],no binding (tested: 2 ug/ml)
same,binding result,[7],no binding (tested: 2 ug/ml)
same,binding result,[8],no binding (tested: 2 ug/ml)
B2,% of binding to wt E2,[1],20%
same,% of binding to wt E2,[2],15%
same,% of binding to wt E2,[3],20%
same,% of binding to wt E2,[4],2%
B3,% of binding to wt E2,[9],15%
same,% of binding to wt E2,[10],20%
same,% of binding to wt E2,[11],35%
same,% of binding to wt E2,[12],28%
B4,% of binding to wt E2,[13],1%
same,% of binding to wt E2,[14],14%
same,% of binding to wt E2,[15],1%
B5,% of binding to wt E2,[14],26%
same,% of binding to wt E2,[15],26%
same,% of binding to wt E2,[16],20%
same,% of binding to wt E2,[4],6%
same,binding result,[5],no binding (tested: 2 ug/ml)
same,binding result,[6],no binding (tested: 2 ug/ml)
